{"source": "patent US20210347913A1", "about": "(CRISPR THERAPEUTICS, published 2021)", "binders": {"B1": {"name": "CTX181.M14 (other)", "chain": "QGCTHVAQWAIKAFCGSSGGSGGSGGSGGGPLGLAGGSSGQVQLVESGGGVVQPGRSLRLSCAASGFTFSSYGMHWVRQAPGKGLEWVAVIWDDGSNKYYVDSVKGRFTISRDNSKNTLYLQMNSLRAEDTAVYYCARDDYYGSGSFNSYYGTDVWGQGTTVTVSSGGGGSGGGGSGGGGSEIVLTQSPATLSLSPGERATLSCRASQSVSIYLAWYQQKPGQAPRLLIYDASNRATGIPARFSGSGSGTDFTLTISSLEPEDFAVYYCQQRSNWPPFTFGPGTKVDIKSAAAFVPVFLPAKPTTTPAPRPPTPAPTIASQPLSLRPEACRPAAGGAVHTRGLDFACDIYIWAPLAGTCGVLLLSLVITLYCNHRNRSKRSRLLHSDYMNMTPRRPGPTRKHYQPYAPPRDFAAYRSRVKFSRSADAPAYQQGQNQLYNELNLGRREEYDVLDKRRGRDPEMGGKPRRKNPQEGLYNELQKDKMAEAYSEIGMKGERRRGKGHDGLYQGLSTATKDTYDALHMQALPPR", "notes": "Masked chimeric antigen receptor on the surface of TRAC-/B2M- human T cells; entry without signal peptide"}, "B2": {"name": "mask peptide P2 (peptide)", "peptide": "HEEVHMRPNKLSLTWAYTGPQLR", "notes": "Found by phage display (Screen 1); fused through a cleavable linker in the masked constructs"}, "B3": {"name": "CTX181.P1 (other)", "chain": "EVAPGKRWFYNHVKQVPHLVGSSGGSGGSGGSGGGPLGLAGGSSGQVQLVESGGGVVQPGRSLRLSCAASGFTFSSYGMHWVRQAPGKGLEWVAVIWDDGSNKYYVDSVKGRFTISRDNSKNTLYLQMNSLRAEDTAVYYCARDDYYGSGSFNSYYGTDVWGQGTTVTVSSGGGGSGGGGSGGGGSEIVLTQSPATLSLSPGERATLSCRASQSVSIYLAWYQQKPGQAPRLLIYDASNRATGIPARFSGSGSGTDFTLTISSLEPEDFAVYYCQQRSNWPPFTFGPGTKVDIKSAAAFVPVFLPAKPTTTPAPRPPTPAPTIASQPLSLRPEACRPAAGGAVHTRGLDFACDIYIWAPLAGTCGVLLLSLVITLYCNHRNRKRGRKKLLYIFKQPFMRPVQTTQEEDGCSCRFPEEEEGGCELRVKFSRSADAPAYQQGQNQLYNELNLGRREEYDVLDKRRGRDPEMGGKPRRKNPQEGLYNELQKDKMAEAYSEIGMKGERRRGKGHDGLYQGLSTATKDTYDALHMQALPPR", "notes": "Masked chimeric antigen receptor on the surface of TRAC-/B2M- human T cells; entry without signal peptide; also called masked anti-PTK7 CAR P1"}}, "key": {"anti-PTK7 antibody Ab181": {"molecular_target": "T1, anti-PTK7 antibody Ab181", "T1 construct": "Unmasked parent IgG1kappa; also called Ab181 IgG1kappa", "experiment": "phage display selection of peptide binders of Ab181 (Screen 1, X15/X19 library)"}, "[1]": {"molecular_target": "T2, PTK7 on PTK7 positive cell line SaOS-2 (osteosarcoma) (UniProt Q13308 31-1070, limits assumed)", "T2 sequence (looked up)": "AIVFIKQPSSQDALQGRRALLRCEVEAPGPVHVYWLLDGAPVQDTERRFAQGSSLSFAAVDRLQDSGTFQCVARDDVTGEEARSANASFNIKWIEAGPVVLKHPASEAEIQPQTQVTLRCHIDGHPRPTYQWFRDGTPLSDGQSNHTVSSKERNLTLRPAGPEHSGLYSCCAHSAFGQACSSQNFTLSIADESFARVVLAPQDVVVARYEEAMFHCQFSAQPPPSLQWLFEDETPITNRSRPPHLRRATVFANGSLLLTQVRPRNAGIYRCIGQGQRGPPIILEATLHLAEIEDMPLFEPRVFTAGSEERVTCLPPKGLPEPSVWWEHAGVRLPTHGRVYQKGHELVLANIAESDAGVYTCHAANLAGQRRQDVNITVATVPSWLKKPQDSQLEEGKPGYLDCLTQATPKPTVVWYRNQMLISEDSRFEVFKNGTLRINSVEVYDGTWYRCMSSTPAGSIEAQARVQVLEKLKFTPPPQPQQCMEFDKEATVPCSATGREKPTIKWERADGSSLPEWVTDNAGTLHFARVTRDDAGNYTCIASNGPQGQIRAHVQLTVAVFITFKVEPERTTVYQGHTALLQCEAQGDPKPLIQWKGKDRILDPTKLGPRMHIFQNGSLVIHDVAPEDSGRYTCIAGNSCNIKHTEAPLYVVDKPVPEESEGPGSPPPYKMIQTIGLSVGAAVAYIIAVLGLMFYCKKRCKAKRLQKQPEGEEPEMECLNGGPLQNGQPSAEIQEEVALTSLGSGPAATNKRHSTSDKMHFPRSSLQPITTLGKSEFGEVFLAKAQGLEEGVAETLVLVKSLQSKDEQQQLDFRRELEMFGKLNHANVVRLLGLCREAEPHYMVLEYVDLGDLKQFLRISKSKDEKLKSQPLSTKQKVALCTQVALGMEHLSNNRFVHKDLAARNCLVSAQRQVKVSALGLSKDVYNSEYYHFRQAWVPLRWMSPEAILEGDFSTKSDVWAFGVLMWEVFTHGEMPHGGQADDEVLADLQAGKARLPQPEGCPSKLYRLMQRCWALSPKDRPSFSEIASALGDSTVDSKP", "experiment": "cell-based or functional assay"}, "[2]": {"molecular_target": "T3, recombinant human PTK7.Fc (R and D Systems, catalog #9799-TK) (human, UniProt Q13308 31-704, limits assumed)", "T3 construct": "Bought reagent; also called soluble recombinant human PTK7.Fc; soluble antigen PTK7; not shown: Fc part of the bought fusion (detected with anti-human Fc)", "T3 sequence (looked up)": "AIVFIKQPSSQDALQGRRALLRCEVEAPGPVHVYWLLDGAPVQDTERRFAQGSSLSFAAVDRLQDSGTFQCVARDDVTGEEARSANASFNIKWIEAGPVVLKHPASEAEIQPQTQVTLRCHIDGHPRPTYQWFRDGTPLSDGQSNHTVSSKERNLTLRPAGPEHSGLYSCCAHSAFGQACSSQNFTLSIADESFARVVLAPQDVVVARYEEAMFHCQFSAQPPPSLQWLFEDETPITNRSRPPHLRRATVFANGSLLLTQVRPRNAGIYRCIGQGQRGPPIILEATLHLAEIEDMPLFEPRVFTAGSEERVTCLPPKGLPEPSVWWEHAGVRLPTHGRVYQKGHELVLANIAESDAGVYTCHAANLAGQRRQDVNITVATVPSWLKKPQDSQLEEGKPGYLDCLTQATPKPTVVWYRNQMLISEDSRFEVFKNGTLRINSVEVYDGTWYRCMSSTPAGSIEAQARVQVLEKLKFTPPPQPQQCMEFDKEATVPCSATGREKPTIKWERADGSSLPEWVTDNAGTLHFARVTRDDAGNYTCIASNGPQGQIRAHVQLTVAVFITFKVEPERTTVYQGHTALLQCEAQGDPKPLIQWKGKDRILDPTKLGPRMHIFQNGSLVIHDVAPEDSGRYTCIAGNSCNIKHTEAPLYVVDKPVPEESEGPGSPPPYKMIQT", "experiment": "flow cytometry, percent of CAR T cells positive for 10 ug/mL PTK7.Fc", "experimental": "In addition to detecting surface CAR expression, the ability of the CAR T cells and masked CAR T cells to detect target antigen was also determined. Live CAR T cells were gated by their forward scatter (FSC) and side scatter (SSC) profiles, and with DAPI dye (Invitrogen, catalog #: D3571). The cells were then stained with 10 μg/mL recombinant human PTK7.Fc (R and D Systems, catalog #9799-TK Lot DHMCO219041) as described above in Example 3, and with mouse anti-human.Fc conjugated to APC (Biolegend cat #409305) as secondary antibody for detection (FIG. 3)."}, "[3]": {"molecular_target": "T2, PTK7 on PTK7 positive cell line SaOS-2 …", "experiment": "cell-based or functional assay", "remark": "listed apart in the source"}}, "data": [{"binder": "EVAPGKRWFYNHVKQVPHLV (Found by phage display (Screen 1))", "note": "[mask peptide P1]", "values": [{"measurement": "binding result", "setting": "anti-PTK7 antibody Ab181", "result": "binds"}]}, {"binder": "B1", "values": [{"measurement": "% Cell killing at E:T = 1:0.5", "setting": "[1]", "result": 52.8, "unit": "%"}, {"measurement": "% Cell killing at E:T = 1:1", "setting": "[1]", "result": 29.5, "unit": "%"}, {"measurement": "% Antigen detection", "setting": "[2]", "result": 36.2, "unit": "%"}, {"measurement": "IFNγ (pg/mL) at E:T = 1:0.5", "setting": "[3]", "result": 1760, "unit": "pg/mL"}, {"measurement": "IFNγ (pg/mL) at E:T = 1:1", "setting": "[3]", "result": 1930, "unit": "pg/mL"}]}, {"binder": "B2", "values": [{"measurement": "binding result", "setting": "anti-PTK7 antibody Ab181", "result": "binds"}]}, {"binder": "B3", "values": [{"measurement": "% Cell killing at E:T = 1:0.5", "setting": "[1]", "result": 92.7, "unit": "%"}, {"measurement": "% Cell killing at E:T = 1:1", "setting": "[1]", "result": 79.1, "unit": "%"}, {"measurement": "% Antigen detection", "setting": "[2]", "result": 42.7, "unit": "%"}, {"measurement": "IFNγ (pg/mL) at E:T = 1:0.5", "setting": "[3]", "result": 13600, "unit": "pg/mL"}, {"measurement": "IFNγ (pg/mL) at E:T = 1:1", "setting": "[3]", "result": 20500, "unit": "pg/mL"}]}]}
